Where two headings read alike, the source gives them in different places.
T1: Full length WT Flag-hRXRα (human retinoid X receptor alpha) (human, UniProt P19793 1-462)
T1 sequence (looked up): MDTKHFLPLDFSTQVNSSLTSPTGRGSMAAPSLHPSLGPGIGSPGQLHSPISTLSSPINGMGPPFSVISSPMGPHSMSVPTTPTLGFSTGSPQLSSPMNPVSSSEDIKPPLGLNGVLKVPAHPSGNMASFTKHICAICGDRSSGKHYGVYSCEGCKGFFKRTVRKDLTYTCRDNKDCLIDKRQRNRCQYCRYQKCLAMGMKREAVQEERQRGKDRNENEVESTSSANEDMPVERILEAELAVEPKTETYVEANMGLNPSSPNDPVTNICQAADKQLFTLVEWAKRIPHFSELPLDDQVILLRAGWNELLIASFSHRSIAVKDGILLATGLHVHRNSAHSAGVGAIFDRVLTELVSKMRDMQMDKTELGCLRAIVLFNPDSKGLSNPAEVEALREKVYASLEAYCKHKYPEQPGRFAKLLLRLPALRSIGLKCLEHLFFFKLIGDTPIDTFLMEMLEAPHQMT

T2: RXRα-VDR heterodimer complex (full length His-hVDR with full length Flag-hRXRα) (human, UniProt P11473 1-427; P19793 1-462)
T2 sequence (looked up) 1: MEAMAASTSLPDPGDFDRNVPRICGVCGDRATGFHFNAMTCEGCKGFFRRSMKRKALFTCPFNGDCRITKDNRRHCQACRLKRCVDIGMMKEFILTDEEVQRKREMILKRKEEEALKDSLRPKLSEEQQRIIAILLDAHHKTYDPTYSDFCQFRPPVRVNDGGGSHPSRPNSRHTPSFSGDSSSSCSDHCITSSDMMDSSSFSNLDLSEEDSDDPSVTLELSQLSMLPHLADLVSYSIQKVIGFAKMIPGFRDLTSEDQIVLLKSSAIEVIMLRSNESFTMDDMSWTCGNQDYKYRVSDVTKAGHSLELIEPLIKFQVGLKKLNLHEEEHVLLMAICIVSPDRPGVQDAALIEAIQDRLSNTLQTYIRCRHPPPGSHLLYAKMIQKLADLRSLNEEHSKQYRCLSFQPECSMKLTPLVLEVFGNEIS
T2 sequence (looked up) 2: T1 sequence (looked up)

B1: His-hVDR LBD (residues 118-425, Δ[165-215]) (domain or fragment, human, UniProt P11473 118-425, looked up)
chain: DSLRPKLSEEQQRIIAILLDAHHKTYDPTYSDFCQFRPPVRVNDGGGSVTLELSQLSMLPHLADLVSYSIQKVIGFAKMIPGFRDLTSEDQIVLLKSSAIEVIMLRSNESFTMDDMSWTCGNQDYKYRVSDVTKAGHSLELIEPLIKFQVGLKKLNLHEEEHVLLMAICIVSPDRPGVQDAALIEAIQDRLSNTLQTYIRCRHPPPGSHLLYAKMIQKLADLRSLNEEHSKQYRCLSFQPECSMKLTPLVLEVFGNE
B2: Full length WT His-hVDR (human vitamin D receptor) (receptor, UniProt P11473 1-427, looked up)
chain: T2 sequence (looked up) 1
B3: His-hSRC1-RID (627-786) variant 1, receptor interacting domain of human steroid receptor coactivator 1 (domain or fragment, UniProt Q15788-1 627-786, looked up)
chain: SQTSHKLVQLLTTTAEQQLRHADIDTSCKDVLSCTGTSNSASANSSGGSCPSSHSSLTERHKILHRLLQEGSPSDITTLSVEPDKKDSASTSVSVTGQVQGNSSIKLELDASKKKESKDHQLLRYLLDKDEKDLRSTPNLSLDDVKVKVEKKEQMDPCNT

Columns and labels:
Assay in all cases: HDX-MS
[1] = molecular target: T1, Full length WT Flag-hRXRα (human …)
[2] = molecular target: T1, Full length WT Flag-hRXRα (human …); remark: listed apart in the source
[3] = molecular target: T2, RXRα-VDR heterodimer complex (full …)
[4] = molecular target: B2

Row | Binder | binding result [1] | binding result [2] | binding result [3] | binding result [4]
1 | B1 | binds | – | – | –
2 | B2 | binds | – | – | –
3 | B3 | – | binds | binds | binds
